Results on six substances are retold here after patent US20040223968A1.

Common to all, as to experiment: cell-based or functional assay
Assay [1] has as its target MIP-1α/RANTES receptor (Homo sapiens (Human)) (UniProt P32246).
The target of assay [2] is MCP-1RB (monocyte chemoattractant protein-1 receptor B) (human) (UniProt P41597).
Assay [3] has as its target MCP-1RA (monocyte chemoattractant protein-1 receptor A) (human) (UniProt P41597).

MCP-1RB (monocyte chemoattractant protein-1 receptor B) (human), sequence (P41597 other isoform, or with tags, fused parts or gaps): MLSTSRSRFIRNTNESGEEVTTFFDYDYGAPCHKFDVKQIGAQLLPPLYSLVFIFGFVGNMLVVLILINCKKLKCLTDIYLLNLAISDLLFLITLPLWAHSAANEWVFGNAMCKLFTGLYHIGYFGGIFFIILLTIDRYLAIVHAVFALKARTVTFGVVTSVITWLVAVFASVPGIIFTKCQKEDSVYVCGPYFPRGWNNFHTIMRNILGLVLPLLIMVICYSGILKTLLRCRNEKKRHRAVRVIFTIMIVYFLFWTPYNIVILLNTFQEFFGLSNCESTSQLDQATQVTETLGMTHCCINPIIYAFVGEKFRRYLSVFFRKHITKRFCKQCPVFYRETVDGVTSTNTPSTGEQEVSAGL
MIP-1α/RANTES receptor (Homo sapiens (Human)), sequence (P32246 whole entry): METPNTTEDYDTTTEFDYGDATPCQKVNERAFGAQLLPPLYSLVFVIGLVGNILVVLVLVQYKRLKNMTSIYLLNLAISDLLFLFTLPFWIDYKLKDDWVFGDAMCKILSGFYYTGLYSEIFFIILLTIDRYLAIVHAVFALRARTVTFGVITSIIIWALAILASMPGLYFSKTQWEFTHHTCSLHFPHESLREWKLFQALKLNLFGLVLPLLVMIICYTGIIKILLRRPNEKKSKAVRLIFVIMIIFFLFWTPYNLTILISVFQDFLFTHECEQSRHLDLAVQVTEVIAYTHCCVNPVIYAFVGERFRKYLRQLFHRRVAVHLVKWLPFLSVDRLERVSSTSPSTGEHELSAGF
MCP-1RA (monocyte chemoattractant protein-1 receptor A) (human), sequence (P41597 whole entry): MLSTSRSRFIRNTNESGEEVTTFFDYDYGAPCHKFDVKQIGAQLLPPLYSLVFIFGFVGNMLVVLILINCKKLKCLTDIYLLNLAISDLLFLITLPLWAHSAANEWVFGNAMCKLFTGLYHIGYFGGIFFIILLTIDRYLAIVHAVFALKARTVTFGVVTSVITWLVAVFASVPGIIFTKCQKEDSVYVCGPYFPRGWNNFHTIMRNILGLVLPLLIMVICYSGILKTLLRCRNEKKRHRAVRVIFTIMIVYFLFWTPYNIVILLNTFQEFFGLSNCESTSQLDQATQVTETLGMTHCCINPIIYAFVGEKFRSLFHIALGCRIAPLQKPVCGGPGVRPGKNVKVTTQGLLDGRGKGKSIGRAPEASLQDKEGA

For the substance “Gro-α (from UniProt P09341 35-107) (ligand)”, the IC50(nM), Inhibition of Adenylyl Cyclase, 293 cells stably expressing the MIP-1α/RANTES receptor in assay [1] is > 1000 nM. Further, the IC50(nM), Inhibition of Adenylyl Cyclase, 293 cells stably expressing MCP-1RB in assay [2] is > 1000 nM.

For “IL-8 (interleukin-8) (from UniProt P10145 28-99) (ligand)”, in assay [2], the IC50(nM), Inhibition of Adenylyl Cyclase, 293 cells stably expressing MCP-1RB is > 1000 nM.

On to “MCP-1 (monocyte chemoattractant protein-1) (from UniProt P13500 24-99) (ligand)”, for which the IC50(nM), Inhibition of Adenylyl Cyclase, 293 cells stably expressing the MIP-1α/RANTES receptor in assay [1] turned out to be 820 nM. Besides, in assay [2], the EC50, 45Ca efflux in Xenopus oocytes injected with receptor cRNA amounted to 15 nM; the EC50, intracellular calcium mobilization (indo-1) in stably transfected MCP-1RB/293 cells amounted to 3.4 nM; the IC50(nM), Inhibition of Adenylyl Cyclase, 293 cells stably expressing MCP-1RB was 0.09 nM; the Selectivity (MCP-1RB against the MIP-1α/RANTES receptor, from the adenylyl cyclase IC50s) is > 9000 fold. In addition, in assay [2], the block of the forskolin-induced increase of cAMP in MCP-1RB-transfected 293 cells was determined as 78% and the reduction of basal cAMP accumulation in MCP-1RB-transfected 293 cells is 55%. The EC50, 45Ca efflux in Xenopus oocytes injected with receptor cRNA in assay [3] is 15 nM.

On to “MIP-1α (from UniProt P10147 27-92) (ligand)”, for which the IC50(nM), Inhibition of Adenylyl Cyclase, 293 cells stably expressing MCP-1RB in assay [2] is > 1000 nM.

With “MIP-1β (from UniProt P13236 24-92) (ligand)”, the IC50(nM), Inhibition of Adenylyl Cyclase, 293 cells stably expressing MCP-1RB in assay [2] was > 1000 nM.

As to “RANTES (from UniProt P13501 24-91) (ligand)”, the IC50(nM), Inhibition of Adenylyl Cyclase, 293 cells stably expressing MCP-1RB in assay [2] was > 1000 nM.
